Consider five molecules from article PMC9458431, “2′-O-Methylation of the second transcribed nucleotide within the mRNA 5′ cap impacts the protein production level in a cell-specific manner and contributes to RNA immune evasion”.

Conditions in all cases: protein: recombinant
The target of series [1] is T1, eIF4E (murine) (Mus musculus, UniProt P63073 28-217). Description: MST competition; vs m7Gp5OC3(5)FAM; as cap0(A); MST: 50 mM HEPES-KOH pH 7.2, 100 mM KCl, 0.5 mM EDTA, 0.05% Tween-20, 25 C, 50 nM eIF4E, 10 nM probe; pull-down: 20 mM Tris-HCl pH 7.4, 150 mM NaCl, 2 mM MgCl2, 2 mM DTT, 0.2% IGEPAL, 4 C.
Series [2] addresses T1, eIF4E (murine). Description: MST competition; vs 10 nM m7Gp5OC3(5)FAM; KD,app only in figure; MST: 50 mM HEPES-KOH pH 7.2, 100 mM KCl, 0.5 mM EDTA, 0.05% Tween-20, 25 C, 50 nM eIF4E, 10 nM probe; pull-down: 20 mM Tris-HCl pH 7.4, 150 mM NaCl, 2 mM MgCl2, 2 mM DTT, 0.2% IGEPAL, 4 C.
Series [3] deals with T1, eIF4E (murine). The series is described as follows: MST competition; vs m7Gp5OC3(5)FAM; not destabilized by m6A; MST: 50 mM HEPES-KOH pH 7.2, 100 mM KCl, 0.5 mM EDTA, 0.05% Tween-20, 25 C, 50 nM eIF4E, 10 nM probe; pull-down: 20 mM Tris-HCl pH 7.4, 150 mM NaCl, 2 mM MgCl2, 2 mM DTT, 0.2% IGEPAL, 4 C.

T1 sequence (P63073 28-217): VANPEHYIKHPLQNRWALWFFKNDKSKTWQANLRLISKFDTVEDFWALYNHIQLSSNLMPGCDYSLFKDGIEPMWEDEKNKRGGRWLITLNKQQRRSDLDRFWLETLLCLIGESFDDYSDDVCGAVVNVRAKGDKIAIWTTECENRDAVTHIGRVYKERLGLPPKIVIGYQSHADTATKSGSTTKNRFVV

B1: cap2(A) RNA (ssRNA)
RNA: AGGGGAAGCGGGCAUGCGGCCAGCCA
modifications: m7Gppp-AmpGm (2'-O-Me at nt 1 and 2)
Regarding B1, the binding result with eIF4E (murine) [1] was “binds”.

B2: cap0(A) RNA (ssRNA)
RNA: AGGGGAAGCGGGCAUGCGGCCAGCCA
modifications: m7Gppp-A
As to B2, the binding result in the series with eIF4E (murine) [2] was “binds”.

B3: cap2-1(m6A) RNA (ssRNA)
RNA: AGGGGAAGCGGGCAUGCGGCCAGCCA
modifications: m7Gppp-m6ApGm
For the molecule B3, the binding result with eIF4E (murine) [3] is listed as “binds”.

B4: cap1(A) RNA (ssRNA)
RNA: AGGGGAAGCGGGCAUGCGGCCAGCCA
modifications: m7Gppp-Am (2'-O-Me at nt 1)
Turning to B4, in the series with eIF4E (murine) [1], the binding result was “binds”.

B5: cap2-1(A) RNA (ssRNA)
RNA: AGGGGAAGCGGGCAUGCGGCCAGCCA
modifications: m7Gppp-ApGm (2'-O-Me at nt 2 only)
On to B5, for which the binding result in the series with eIF4E (murine) [1] is recorded as “binds”.
